According to article PMC11250742, “Preclinical evaluation of CXCR4 peptides for targeted radionuclide therapy in glioblastoma” (EJNMMI Radiopharmacy and Chemistry, 2024):
Where a SMILES comes first, the peptide text is derived from it. Bridges are numbered along the chain shown (N, C = ends). [ ]: non-standard residue; d: D form. The star is where a group is joined. DOTA = O=C(O)CN1CCN(CC(=O)O)CCN(CC(=O)*)CCN(CC(=O)O)CC1; 2Nal = N[C@@H](Cc1ccc2ccccc2c1)C(=O)O; Cit = NC(=O)NCCC[C@H](N)C(=O)O

Key:
U87-CXCR4 + cells = experiment: MTS cell viability assay; type: cell-based; details: 2 h
Method: Cell viability assays were performed using increasing activity concentrations of the radiolabelled peptides (1 to 20 MBq/mL), incubated with U87-CXC4 + cells for four hours at 37 °C, 5% CO2. After the incubation period, cells were washed twice with PBS and replenished with complete media. After five and seven days of treatment, the cell media was removed and MTS (3-(4,5-dimethylthiazol-2-yl)-5-(3-carboxymethoxyphenyl)-2-(4-sulfophenyl)-2 H-tetrazolium) reagent added, prepared according to manufacturer’s instructions (CellTiter 96® AQueous One Solution Cell Proliferation Assay, Promega, Wisconsin, United States). To determine the effect of the radiation originating from unbound radiolabelled peptides, cells were treated with equivalent activity concentrations of [^177Lu]Lu-DTPA. Triton X-100 (0.1%) was used as a positive control. Vehicle includes the NaOAc radiolabeling buffer at the concentration used for the 20 MBq/mL peptide solutions. The cells were incubated for 0.5–1 h with the MTS reagent at 37 °C, 5% CO2. Absorbance was measured at 490 nm using a BioTek Synergy H1 plate reader (Agilent Technologies, Mechelen, Belgium). Cell viability was normalised to the vehicle and calculated as percentage of cell viability.

in vivo = experiment: in vivo; parameters: species or system BALB/c nude mice; details: mouse; for tissue uptake dose at 4 h / SUV at 4 h: BALB/c nude, iv, total radioactivity; for tissue uptake dose at 4 h: %IA
Method: For the generation of the subcutaneous GBM xenograft model, BALB/c nude mice (between 8 and 12 weeks old) were anesthetised with 2.5% isoflurane in O2 at a flow rate of 0.2 L/min and subcutaneously injected on the right shoulder with 3 × 10^6 U87-CXCR4 + cells resuspended in a 1:1 mixture of PBS and Cultrex BME (R&D Systems, Bio-Techne, Minnesota, US). Tumours were left to grow for ten days before the start of the experiment. Tumour volumes were calculated as length × width × height. Three days before the experiment, the mean tumour volumes of all mice were 255 ± 119 mm^3.
All animals were anesthetised with 2.5% isoflurane in O2 at a flow rate of 1 L/min and intravenously (IV) injected with 1.5 MBq of [^177Lu]Lu-POL3026 via a tail vein (radiolabelled with a Am of 53.1 ± 0.55 MBq/nmol). The mice were sacrificed by an overdose of pentobarbital (200 µL of 60 mg/mL) at 1-, 4-, 24- and 168 h post-injection (p.i.) (n = 3–4 per time point), followed by cardiac puncture. Organs of interest were collected in tarred tubes and weighed. The activity in the different organs was measured in the automated gamma counter described above. For the calculation of the total activity in the blood, bone, and muscle, the masses were assumed to be 7, 12 and 40% of the total body mass, respectively. Data is shown as standardised uptake value (SUV), calculated using the following equation:
SUV = [Activity in organ (cpm) / Organ weight (g)] / [(Injected activity (cpm) / Total body weight (g)].
A separate study was performed to evaluate the specificity of the uptake of [^177Lu]Lu-POL3026 in U87-CXCR4 + subcutaneous tumours and the rest of the organs. This was done by creating two groups (n = 4 / group), one group pre-injected intraperitoneally (IP) with 5 mg/kg of AMD11070, 30 min before the IV injection of [^177Lu]Lu-POL3026, while the other group was pre-injected with the DMSO vehicle. Mice from both groups were sacrificed 4 h post-injection and organs were collected as previously described.

CXCR4 = biological target: T1, CXCR4 (Homo sapiens, UniProt P61073); experiment: In vitro autoradiography saturation binding on U87-CXCR4 + tumour slices; details: sections of subcutaneous U87-CXCR4 + tumours; 0.1–1000 nM; NSB with 100 µM AMD11070; N = 3
T1 construct: expressed in transfected cells; host or cells: U87-MG (U87-CXCR4+), kept under blasticidin selection
T1 sequence (P61073 whole entry): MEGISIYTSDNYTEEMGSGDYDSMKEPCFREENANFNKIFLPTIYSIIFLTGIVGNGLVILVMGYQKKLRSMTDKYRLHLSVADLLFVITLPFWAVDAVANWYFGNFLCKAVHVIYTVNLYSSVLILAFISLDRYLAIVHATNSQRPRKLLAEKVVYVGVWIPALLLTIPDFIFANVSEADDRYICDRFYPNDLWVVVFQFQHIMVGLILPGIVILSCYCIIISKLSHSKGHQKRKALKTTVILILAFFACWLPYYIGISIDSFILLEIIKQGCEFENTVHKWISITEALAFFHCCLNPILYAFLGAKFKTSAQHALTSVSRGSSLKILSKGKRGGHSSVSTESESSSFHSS

SMILES: N=C(N)NCCC[C@@H]1NC(=O)[C@@H]2CSSC[C@H](NC(=O)[C@H](Cc3ccc4ccccc4c3)NC(=O)[C@H](CCCNC(=N)N)NC(=O)[C@H](CCCNC(=N)N)NC(=O)[C@H]3CCCN3C(=O)CNC1=O)C(=O)N[C@@H](Cc1ccc(O)cc1)C(=O)N[C@@H](CCC(N)=O)C(=O)N[C@@H](CCCCNC(=O)CN1CCN(CC(=O)O)CCN(CC(=O)O)CCN(CC(=O)O)CC1)C(=O)N1CCC[C@@H]1C(=O)N1CCC[C@H]1C(=O)N[C@@H](Cc1ccc(O)cc1)C(=O)N[C@@H](CCCNC(=N)N)C(=O)N[C@@H](CCCNC(N)=O)C(=O)N2 [[^177Lu]Lu-DOTA-POL3026, metal not drawn] (cyclo(RR[2Nal]CYQK(DOTA)[dP]PYR[Cit]CRG[dP]); disulfide 4-13)
- cell viability (U87-CXCR4 + cells): 52.3 ± 9.9%
- tissue uptake dose at 4 h (in vivo; 5 mg/kg, Blood): 0.33 %ID
- tissue uptake dose at 4 h (in vivo; 5 mg/kg, Blood on tissue paper): 0.97 %ID
- tissue uptake dose at 4 h (in vivo; 5 mg/kg, Bone): 5.16 %ID
- tissue uptake dose at 4 h (in vivo; 5 mg/kg, Brain): 0.01 %ID
- tissue uptake dose at 4 h (in vivo; 5 mg/kg, Carcass): 9.91 %ID
- tissue uptake dose at 4 h (in vivo; 5 mg/kg, Heart): 0.03 %ID
- tissue uptake dose at 4 h (in vivo; 5 mg/kg, Intestines): 1.17 %ID
- tissue uptake dose at 4 h (in vivo; 5 mg/kg, Kidneys): 5.44 %ID
- tissue uptake dose at 4 h (in vivo; 5 mg/kg, Liver): 33.8 %ID
- tissue uptake dose at 4 h (in vivo; 5 mg/kg, Lungs): 0.35 %ID
- tissue uptake dose at 4 h (in vivo; 5 mg/kg, Muscle): 1.02 %ID
- tissue uptake dose at 4 h (in vivo; 5 mg/kg, Pancreas): 0.02 %ID
- tissue uptake dose at 4 h (in vivo; 5 mg/kg, Spleen): 0.51 %ID
- tissue uptake dose at 4 h (in vivo; 5 mg/kg, Stomach): 0.06 %ID
- tissue uptake dose at 4 h (in vivo; 5 mg/kg, Tail): 3.44 %ID
- tissue uptake dose at 4 h (in vivo; 5 mg/kg, Tumour): 1.68 %ID
- SUV at 4 h (in vivo; 5 mg/kg, Blood): 0.05 SUV
- SUV at 4 h (in vivo; 5 mg/kg, Bone): 0.43 SUV
- SUV at 4 h (in vivo; 5 mg/kg, Heart): 0.06 SUV
- SUV at 4 h (in vivo; 5 mg/kg, Kidneys): 3.74 SUV
- SUV at 4 h (in vivo; 5 mg/kg, Liver): 5.76 SUV
- SUV at 4 h (in vivo; 5 mg/kg, Lungs): 0.57 SUV
- SUV at 4 h (in vivo; 5 mg/kg, Muscle): 0.03 SUV
- SUV at 4 h (in vivo; 5 mg/kg, Pancreas): 0.03 SUV
- SUV at 4 h (in vivo; 5 mg/kg, Spleen): 1.41 SUV
- SUV at 4 h (in vivo; 5 mg/kg, Tumour): 1.59 SUV
- tissue uptake dose at 4 h (in vivo; 1.5 MBq, Blood): 2.91 %ID
- tissue uptake dose at 4 h (in vivo; 1.5 MBq, Blood on tissue paper): 1.34 %ID
- tissue uptake dose at 4 h (in vivo; 1.5 MBq, Bone): 6.85 %ID
- tissue uptake dose at 4 h (in vivo; 1.5 MBq, Brain): 0.02 %ID
- tissue uptake dose at 4 h (in vivo; 1.5 MBq, Carcass): 20.3 %ID
- tissue uptake dose at 4 h (in vivo; 1.5 MBq, Heart): 0.16 %ID
- tissue uptake dose at 4 h (in vivo; 1.5 MBq, Intestines): 2.43 %ID
- tissue uptake dose at 4 h (in vivo; 1.5 MBq, Kidneys): 5.12 %ID
- tissue uptake dose at 4 h (in vivo; 1.5 MBq, Liver): 33.5 %ID
- tissue uptake dose at 4 h (in vivo; 1.5 MBq, Lungs): 1.23 %ID
- tissue uptake dose at 4 h (in vivo; 1.5 MBq, Muscle): 3.35 %ID
- tissue uptake dose at 4 h (in vivo; 1.5 MBq, Pancreas): 0.12 %ID
- tissue uptake dose at 4 h (in vivo; 1.5 MBq, Spleen): 1.74 %ID
- tissue uptake dose at 4 h (in vivo; 1.5 MBq, Stomach): 0.18 %ID
- tissue uptake dose at 4 h (in vivo; 1.5 MBq, Tail): 2.77 %ID
- tissue uptake dose at 4 h (in vivo; 1.5 MBq, Tumour): 3.35 %ID
- SUV at 4 h (in vivo; 1.5 MBq, Blood): 0.42 SUV
- SUV at 4 h (in vivo; 1.5 MBq, Bone): 0.57 SUV
- SUV at 4 h (in vivo; 1.5 MBq, Brain): 0.01 SUV
- SUV at 4 h (in vivo; 1.5 MBq, Heart): 0.37 SUV
- SUV at 4 h (in vivo; 1.5 MBq, Kidneys): 3.84 SUV
- SUV at 4 h (in vivo; 1.5 MBq, Liver): 6.18 SUV
- SUV at 4 h (in vivo; 1.5 MBq, Lungs): 2.29 SUV
- SUV at 4 h (in vivo; 1.5 MBq, Muscle): 0.08 SUV
- SUV at 4 h (in vivo; 1.5 MBq, Pancreas): 0.15 SUV
- SUV at 4 h (in vivo; 1.5 MBq, Spleen): 4.83 SUV
- SUV at 4 h (in vivo; 1.5 MBq, Tumour): 2.58 SUV
- SUV, Brain (in vivo; ip, 5 mg/kg): 0.00
- Kd (CXCR4): 0.052 µM
